Laboratory results taken from PMC3500696.
Like-named read-outs stand apart in the source and are kept apart here.

Legend:
[1] = biological target: porcine CSF-1R expressed in Ba/F3 cells (pig)
[2] = biological target: porcine CSF-1R expressed in Ba/F3 cells (pig); remark: listed apart in the source

## recombinant human CSF-1 (from UniProt P09603 33-554) (ligand)
[1]
  EC50, MTT cell viability assay, Ba/F3 cells expressing porcine CSF-1R (compared with bacterially produced porcine CSF-1): 0.034 µg/mL
[2]
  EC50, MTT cell viability assay, Ba/F3 cells expressing porcine CSF-1R (compared with rhIL-34): 0.1 µg/mL

## bacterially produced porcine CSF-1 (active fragment Ser36-Arg189) (ligand)
[1]
  EC50, MTT cell viability assay, Ba/F3 cells expressing porcine CSF-1R: 0.029 µg/mL

B1: recombinant human Interleukin 34 (ligand)
chain: NEPLEMWPLTQNEECTVTGFLRDKLQYRSRLQYMKHYFPINYKISVPYEGVFRIANVTRLQRAQVSERELRYLWVLVSLSATESVQDVLLEGHPSWKYLQEVETLLLNVQQGLTDVEVSPKVESVLSLLNAPGPNLKLVRPKALLDNCFRVMELLYCSCCKQSSVLNWQDCEVPSPQSCSPEPSLQYAATQLYPPPPWSPSSPPHSTGSVRPVRAQGEGLLP
[2]
  EC50, MTT cell viability assay, Ba/F3 cells expressing porcine CSF-1R: 0.137 µg/mL
